Measured values as given in patent publication US20180265573A1 (ICAHN SCHOOL OF MEDICINE AT MOUNT SINAI, published 2018).

How the values were obtained:
[1] = molecular target: baculovirus-expressed hemagglutinin of influenza virus A/California/04/09 (H1) (influenza A virus A/California/04/09 …)
[2] = molecular target: baculovirus-expressed hemagglutinin of influenza virus A/Solomon Islands/06 (H1) (influenza A virus A/Solomon Islands/06 …)
[3] = molecular target: hemagglutinin of influenza A virus A/Puerto Rico/8/34 (influenza A virus A/Puerto Rico/8/34, UniProt P03452 18-565); test: cell-based or functional assay
[4] = molecular target: T1, hemagglutinin of influenza A virus A/Hong Kong/1/68 (H3) (influenza A virus A/Hong Kong/1/68 (H3), UniProt Q91MA7 17-566); test: immunofluorescence on infected, fixed MDCK cells
T1 construct: whole, on cells; also called HK68 (H3)

B1: monoclonal antibody GG3 (antibody, V domains shown)
VH: QIQLVQSGPELKKPGETVKISCKASGYTFTNYGMNWVKQAPGKGLKWMGWINIYSGESTYVDDFTGRFAFSLETSASTAYLQINNLKNEDMATYFCARSGDTMITAGRSFFAMDYWGQGTSVTVSS
VL: DIQMTQSPSSLSASLGERVSLTCRASQEISGYLSWLQQKPDGTIKRLIYAASTLDSGVPKRFSGSRSGSDYSLSISSLESEDFADYYCLQYANYPWSFGGGTKLEIK
notes: also called mAb GG3; Mab GG3
[1]
  EC50 (read off the curve): ~0.01 mg/L
[2]
  EC50 (read off the curve): ~0.007 mg/L
[3]
  IC50 (read off the curve), plaque reduction neutralization assay: ~1 mg/L
[4]
  binding result: no binding (tested: 5 µg/mL)
